# Source: US10738094B2, “Peptides and combination of peptides for use in immunotherapy against ovarian cancer and other cancers” (immatics biotechnologies GmbH, priority 2015, dated 2020)
# Target: HLA-A*02:01 (Homo sapiens, UniProt P04439, D140Y/D185E/D98H/E176V/E277Q/G131W/G231S/I119V/I121R/I166T/I218V/L300P/L318F/N151K/N90K/P208A/P217A/Q86G/Q94H/R138H/R169H/T345S)
# Test: MHC binding assay (UV-ligand exchange, beta2m ELISA)
# Conditions: binding to HLA-A*02:01 ranged by peptide exchange yield (UV-ligand exchange, β2m ELISA)
# In short: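 Stabilised complexes were quantified via their β2m light chain: 100-fold-diluted monomers bound to streptavidin plates, then HRP anti-β2m at 2 ug/ml for 1 h at 37° C., TMB read at 450 nm. The value is the yield of UV-induced exchange of a photocleavable peptide for the candidate.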
row,Substance,Peptide exchange
1,230 (ILVDWLVEV; listed as Homo sapiens) [compound 230],“+” (≥10% = +)
2,231 (FLSPQQPPLLL; listed as Homo sapiens) [compound 231],“++” (≥20% = ++)
3,232 (ALLEAQDVELYL; listed as Homo sapiens) [compound 232],“++” (≥20% = ++)
4,233 (VLSETLYEL; listed as Homo sapiens) [compound 233],“++” (≥20% = ++)
5,234 (ALMEDTGRQML; listed as Homo sapiens) [compound 234],“++” (≥20% = ++)
6,235 (YLNDLHEVLL; listed as Homo sapiens) [compound 235],“++++” (≥75% = ++++)
7,236 (GLLEAKVSL; listed as Homo sapiens) [compound 236],“+++” (≥50 = +++)
8,237 (ALLEASGTLLL; listed as Homo sapiens) [compound 237],“++++” (≥75% = ++++)
9,238 (YLISFQTHI; listed as Homo sapiens) [compound 238],“+++” (≥50 = +++)
10,239 (AAFAGKLLSV; listed as Homo sapiens) [compound 239],“+++” (≥50 = +++)
11,240 (ILLEQAFYL; listed as Homo sapiens) [compound 240],“+++” (≥50 = +++)
12,241 (SLVEVNPAYSV; listed as Homo sapiens) [compound 241],“+++” (≥50 = +++)
13,242 (AIAYILQGV; listed as Homo sapiens) [compound 242],“++” (≥20% = ++)
14,243 (LLLNELPSV; listed as Homo sapiens) [compound 243],“+++” (≥50 = +++)
15,244 (SLFGGTEITI; listed as Homo sapiens) [compound 244],“+++” (≥50 = +++)
16,245 (SMIDDLLGV; listed as Homo sapiens) [compound 245],“+++” (≥50 = +++)
17,246 (LLWEVVSQL; listed as Homo sapiens) [compound 246],“+++” (≥50 = +++)
18,248 (FLFPNQYVDV; listed as Homo sapiens) [compound 248],“+++” (≥50 = +++)
19,249 (LLDGFLVNV; listed as Homo sapiens) [compound 249],“+++” (≥50 = +++)
20,250 (ALSEEGLLVYL; listed as Homo sapiens) [compound 250],“+++” (≥50 = +++)
21,251 (ALYTGFSILV; listed as Homo sapiens) [compound 251],“++” (≥20% = ++)
22,252 (LLIGTDVSL; listed as Homo sapiens) [compound 252],“+++” (≥50 = +++)
23,253 (GLDAATATV; listed as Homo sapiens) [compound 253],“++” (≥20% = ++)
24,254 (TLLAFIMEL; listed as Homo sapiens) [compound 254],“+++” (≥50 = +++)
25,255 (VLASYNLTV; listed as Homo sapiens) [compound 255],“+++” (≥50 = +++)
26,256 (FLPPEHTIVYI; listed as Homo sapiens) [compound 256],“+++” (≥50 = +++)

row,Substance,Peptide exchange
1,257 (SIFSAFLSV; listed as Homo sapiens) [compound 257],“+++” (≥50 = +++)
2,258 (ELAERVPAI; listed as Homo sapiens) [compound 258],“++” (≥20% = ++)
3,261 (YVLEFLEEI; listed as Homo sapiens) [compound 261],“++” (≥20% = ++)
4,262 (LLWGDLIWL; listed as Homo sapiens) [compound 262],“+++” (≥50 = +++)
5,263 (LLVSNLDFGV; listed as Homo sapiens) [compound 263],“+++” (≥50 = +++)
6,264 (SLQEQLHSV; listed as Homo sapiens) [compound 264],“+++” (≥50 = +++)
7,265 (LLFGGTKTV; listed as Homo sapiens) [compound 265],“++” (≥20% = ++)
8,266 (KITDTLIHL; listed as Homo sapiens) [compound 266],“+++” (≥50 = +++)
9,267 (ALQDFLLSV; listed as Homo sapiens) [compound 267],“+++” (≥50 = +++)
10,269 (RVLEVGALQAV; listed as Homo sapiens) [compound 269],“++” (≥20% = ++)
11,270 (LLLDEEGTFSL; listed as Homo sapiens) [compound 270],“++” (≥20% = ++)
12,271 (LVYPLELYPA; listed as Homo sapiens) [compound 271],“+++” (≥50 = +++)
13,272 (ALGNTVPAV; listed as Homo sapiens) [compound 272],“+++” (≥50 = +++)
14,273 (NLFQSVREV; listed as Homo sapiens) [compound 273],“++” (≥20% = ++)
15,274 (SLLFSLFEA; listed as Homo sapiens) [compound 274],“++” (≥20% = ++)
16,275 (YLVYILNEL; listed as Homo sapiens) [compound 275],“++” (≥20% = ++)
17,276 (ALFTFSPLTV; listed as Homo sapiens) [compound 276],“+++” (≥50 = +++)
18,277 (LLPPLESLATV; listed as Homo sapiens) [compound 277],“++” (≥20% = ++)
19,278 (QLLDVVLTI; listed as Homo sapiens) [compound 278],“++” (≥20% = ++)
20,279 (ALWGGTQPLL; listed as Homo sapiens) [compound 279],“++” (≥20% = ++)
21,280 (VLPDPEVLEAV; listed as Homo sapiens) [compound 280],“+++” (≥50 = +++)
22,281 (ILRESTEEL; listed as Homo sapiens) [compound 281],“+++” (≥50 = +++)
23,282 (LLADVVPTT; listed as Homo sapiens) [compound 282],“+++” (≥50 = +++)
24,283 (ALYIGDGYVIHLA; listed as Homo sapiens) [compound 283],“+++” (≥50 = +++)
25,284 (ILLSQTTGV; listed as Homo sapiens) [compound 284],“+++” (≥50 = +++)
26,285 (QLLHVGVTV; listed as Homo sapiens) [compound 285],“+++” (≥50 = +++)

row,Substance,Peptide exchange
1,286 (YLFPGIPEL; listed as Homo sapiens) [compound 286],“+++” (≥50 = +++)
2,287 (FLNEFFLNV; listed as Homo sapiens) [compound 287],“+++” (≥50 = +++)
3,288 (NLINEINGV; listed as Homo sapiens) [compound 288],“+++” (≥50 = +++)
4,289 (VLLEIEDLQV; listed as Homo sapiens) [compound 289],“++++” (≥75% = ++++)
5,295 (VLDRESPNV; listed as Homo sapiens) [compound 295],“+++” (≥50 = +++)
6,296 (FMEGAIIYV; listed as Homo sapiens) [compound 296],“+++” (≥50 = +++)
7,297 (VLADIELAQA; listed as Homo sapiens) [compound 297],“+++” (≥50 = +++)
8,298 (VMITKLVEV; listed as Homo sapiens) [compound 298],“+++” (≥50 = +++)
9,299 (YLLETSGNL; listed as Homo sapiens) [compound 299],“+++” (≥50 = +++)
10,300 (ALLGQTFSL; listed as Homo sapiens) [compound 300],“+++” (≥50 = +++)
11,301 (FLVEDLVDSL; listed as Homo sapiens) [compound 301],“+++” (≥50 = +++)
12,302 (ALLQEGEVYSA; listed as Homo sapiens) [compound 302],“+++” (≥50 = +++)
13,303 (AILPQLFMV; listed as Homo sapiens) [compound 303],“++++” (≥75% = ++++)
14,304 (MTLGQIYYL; listed as Homo sapiens) [compound 304],“+++” (≥50 = +++)
15,305 (SIANFSEFYV; listed as Homo sapiens) [compound 305],“++++” (≥75% = ++++)
16,306 (ALVNVQIPL; listed as Homo sapiens) [compound 306],“+++” (≥50 = +++)
17,307 (ALPVSLPQI; listed as Homo sapiens) [compound 307],“+++” (≥50 = +++)
18,308 (SQYSGQLHEV; listed as Homo sapiens) [compound 308],“+++” (≥50 = +++)
19,309 (GLFDGVPTTA; listed as Homo sapiens) [compound 309],“+++” (≥50 = +++)
20,310 (FLVDTPLARA; listed as Homo sapiens) [compound 310],“++++” (≥75% = ++++)
21,311 (RLYTGMHTV; listed as Homo sapiens) [compound 311],“+++” (≥50 = +++)
22,312 (IISDLTIAL; listed as Homo sapiens) [compound 312],“+++” (≥50 = +++)
23,313 (VLFDDELLMV; listed as Homo sapiens) [compound 313],“+++” (≥50 = +++)
24,314 (ALIAEGIALV; listed as Homo sapiens) [compound 314],“+++” (≥50 = +++)
25,315 (YLQDVVEQA; listed as Homo sapiens) [compound 315],“+++” (≥50 = +++)
26,316 (ILLERLWYV; listed as Homo sapiens) [compound 316],“+++” (≥50 = +++)
